Experimental data as given in US9266964.

Key:
human plasma kallikrein [1] = biological target: human plasma kallikrein (human, UniProt P03952 20-390; P03952 391-638); test: cell-based or functional assay
Target sequence in this assay (P03952 20-390, chain 1 of 2): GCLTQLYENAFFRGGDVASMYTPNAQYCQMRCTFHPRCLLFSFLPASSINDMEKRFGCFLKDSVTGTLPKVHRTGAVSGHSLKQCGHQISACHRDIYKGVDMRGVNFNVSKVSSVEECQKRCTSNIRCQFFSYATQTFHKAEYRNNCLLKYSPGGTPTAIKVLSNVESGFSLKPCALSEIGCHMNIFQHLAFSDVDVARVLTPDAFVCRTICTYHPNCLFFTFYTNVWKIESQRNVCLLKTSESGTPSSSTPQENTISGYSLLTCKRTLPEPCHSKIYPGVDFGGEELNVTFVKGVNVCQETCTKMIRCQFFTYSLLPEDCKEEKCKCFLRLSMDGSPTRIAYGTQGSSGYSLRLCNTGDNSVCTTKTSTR
Target sequence in this assay (P03952 391-638, chain 2 of 2): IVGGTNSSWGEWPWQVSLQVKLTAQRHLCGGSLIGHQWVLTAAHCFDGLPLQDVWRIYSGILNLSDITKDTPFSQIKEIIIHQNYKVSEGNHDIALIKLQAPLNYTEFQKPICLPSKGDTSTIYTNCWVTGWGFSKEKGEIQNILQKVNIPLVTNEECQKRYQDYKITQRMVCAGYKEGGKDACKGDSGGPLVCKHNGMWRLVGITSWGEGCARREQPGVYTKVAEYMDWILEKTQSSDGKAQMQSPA

human plasma kallikrein [2] = biological target: T1, human plasma kallikrein (human, UniProt P03952 20-390; P03952 391-638); test: ELISA; signal on coated biotinylated human plasma kallikrein divided by signal on streptavidin; Fab
T1 construct: two disulfide-linked chains; also called pKal; human pKal
Source text: Abbreviations used: "T/B" is the ELISA signal obtained using of the target (biotinylated plasma kallikrein) divided by the ELISA signal of the "background" (streptavidin); both of which were coated on microtiter plates. "nd" is not determined. The symbol "q" refers to the amber suppressible stop codon (TAG), which is translated as glutamine (Q) in strains of E. coli such as the TG1 cells that were used to express the Fab fragments.
T1 sequence (P03952 20-390, chain 1 of 2): as the sequence (P03952 20-390, chain 1 of 2) above
T1 sequence (P03952 391-638, chain 2 of 2): as the sequence (P03952 391-638, chain 2 of 2) above

Binder	% inhibition at 10 nM (human plasma kallikrein [1]) [%]	Human pKal ELISA (T/B) (human plasma kallikrein [2])
M202-E03 (Fab, V domains shown) VH: EVQLLESGGGLVQPGGSLRLSCAASGFTFSHYIMMWVRQAPGKGLEWVSGIYSSGGITVYADSVKGRFTISRDNSKNTLYLQMNSLRAEDTAVYYCAYRRTGIPRRDAFEIWGQGTMVTVSS VL: DIQMTQSPSTLSASVGDRVTITCRASQSISSWLAWYQQKPGKAPNLLIYKASTLESGVPSRFSGSGSGTEFTLTISSLQPDDFATYYCQQYNTYWTFGQGTKVEIK	51.4	–
M196-G12 (Fab, V domains shown) VH: EVQLLESGGGLVQPGGSLRLSCAASGFTFSNYSMDWVRQAPGKGLEWVSRIYSSGGGTIYADSVKGRFTISRDNSKNTLYLQMNSLRAEDTAVYYCAYRRTGIPRRDAFDIWGQGTMVTVSS VL: DIQMTQSPSTLSASVGDRVTITCRASQSISSWLAWYQQKPGKAPNLLIYKASTLESGVPSRFSGSGSGTEFTLTISSLQPDDFATYYCQQYNTYWTFGQGTKVEIK	51.1	–
M195-F12 (Fab, V domains shown) VH: EVQLLESGGGLVQPGGSLRLSCAASGFTFSHYVMMWVRQAPGKGLEWVSYIVPSGGVTAYADSVKGRFTISRDNSKNTLYLQMNSLRAEDTAVYYCAYRRTGIPRRDAFDIWGQGTMVTVSS VL: DIQMTQSPSTLSASVGDRVTITCRASQSISSWLAWYQQKPGKAPNLLIYKASTLESGVPSRFSGSGSGTEFTLTISSLQPDDFATYYCQQYNTYWTFGQGTKVEIK	45.5	–
M200-B01 (Fab, V domains shown) VH: EVQLLESGGGLVQPGGSLRLSCAASGFTFSHYIMMWVRQAPGKGLEWVSGIYSSGGITVYADSVKGRFTISRDNSKNTLYLQMNSLRAEDTAVYYCAYRRTGIPRRDAFDSWGQGTMVTVSS VL: DIQMTQSPSTLSASVGDRVTITCRASQSISSWLAWYQQKPGKAPNLLIYKASTLESGVPSRFSGSGSGTEFTLTISSLQPDDFATYYCQQYNTYWTFGQGTKVEIK	42.6	–
M198-H09 (Fab, V domains shown) VH: EVQLLESGGGLVQPGGSLRLSCAASGFTFSIYLMIWVRQAPGKGLEWVSYIGPSGGPTEYADSVKGRFTISRDNSKNTLYLQMNSLRAEDTAVYYCAYRRTGIPRRDAFDIWGQGTMVTVSS VL: DIQMTQSPSTLSASVGDRVTITCRASQSISSWLAWYQQKPGKAPNLLIYKASTLESGVPSRFSGSGSGTEFTLTISSLQPDDFATYYCQQYNTYWTFGQGTKVEIK	41.1	–
M195-E12 (Fab, V domains shown) VH: EVQLLESGGGLVQPGGSLRLSCAASGFTFSYYIMFWVRQAPGKGLEWVSYISPSGGYTHYADSVKGRFTISRDNSKNTLYLQMNSLRAEDTAVYYCAYRRTGIPRRDAFDIWGQGTMVTVSS VL: DIQMTQSPSTLSASVGDRVTITCRASQSISSWLAWYQQKPGKAPNLLIYKASTLESGVPSRFSGSGSGTEFTLTISSLQPDDFATYYCQQYNTYWTFGQGTKVEIK	38	–
M201-A06 (Fab, V domains shown) VH: EVQLLESGGGLVQPGGSLRLSCAASGFTFSHYIMMWVRQAPGKGLEWVSGIYSSGGITVYADSVKGRFTISRDNSKNTLYLQMNSLRAEDTAVYYCAYRRTGIPRRDVFDIWGQGTMVTVSS VL: DIQMTQSPSTLSASVGDRVTITCRASQSISSWLAWYQQKPGKAPNLLIYKASTLESGVPSRFSGSGSGTEFTLTISSLQPDDFATYYCQQYNTYWTFGQGTKVEIK	36.8	–
M202-A10 (Fab, V domains shown) VH: EVQLLESGGGLVQPGGSLRLSCAASGFTFSHYIMMWVRQAPGKGLEWVSGIYSSGGITVYADSVKGRFTISRDNSKNTLYLQMNSLRAEDTAVYYCAFRRTGIPRRDSFDIWGQGTMVTVSS VL: DIQMTQSPSTLSASVGDRVTITCRASQSISSWLAWYQQKPGKAPNLLIYKASTLESGVPSRFSGSGSGTEFTLTISSLQPDDFATYYCQQYNTYWTFGQGTKVEIK	36.3	–
M197-G11 (Fab, V domains shown) VH: EVQLLESGGGLVQPGGSLRLSCAASGFTFSTYAMVWVRQAPGKGLEWVSSIYPSGGITTYADSVKGRFTISRDNSKNTLYLQMNSLRAEDTAVYYCAYRRTGIPRRDAFDIWGQGTMVTVSS VL: DIQMTQSPSTLSASVGDRVTITCRASQSISSWLAWYQQKPGKAPNLLIYKASTLESGVPSRFSGSGSGTEFTLTISSLQPDDFATYYCQQYNTYWTFGQGTKVEIK	19.2	–
M201-F11 (Fab, V domains shown) VH: EVQLLESGGGLVQPGGSLRLSCAASGFTFSHYIMMWVRQAPGKGLEWVSGIYSSGGITVYADSVKGRFTISRDNSKNTLYLQMNSLRAEDTAVYYCAYRRSGIPRRDAFDIWGQGTMVTVSS VL: DIQMTQSPSTLSASVGDRVTITCRASQSISSWLAWYQQKPGKAPNLLIYKASTLESGVPSRFSGSGSGTEFTLTISSLQPDDFATYYCQQYNTYWTFGQGTKVEIK	15.7	–
M198-A01 (Fab, V domains shown) VH: EVQLLESGGGLVQPGGSLRLSCAASGFTFSPYTMIWVRQAPGKLGEWVSSISSSGGMTPYADSVKGRFTISRDNSKNTLYLQMNSLRAEDTAVYYCAYRRTGIPRRDAFDIWGQGTMVTVSS VL: DIQMTQSPSTLSASVGDRVTITCRASQSISSWLAWYQQKPGKAPNLLIYKASTLESGVPSRFSGSGSGTEFTLTISSLQPDDFATYYCQQYNTYWTFGQGTKVEIK	13.8	–
M9-A08 (Fab, V domains shown, Fab fragment (E. coli TG1); printed HC runs into the start of CH1) VH: EVQLLESGGGLVQPGGSLRLSCAASGFTFSAYEMWWVRQAPGKGLEWVSYIGSSGGSTSYADSVKGRFTISRDNSKNTLYLQMNSLRAEDTAVYYCTGGNSSSFDAFDIWGQGTMVTVSS VL: DIQMTQSPSSLSASVGDRVTVTCRASQRISTYLNWYQQKPGKAPKLLISGASSLQSGVPSRFSGSGSGTDFTLTISSLQPDDFATYYCQQSYNTPRTFGQGTKVEIR	–	5.5 T/B (target signal / background signal)
M9-C08 (Fab, V domains shown, Fab fragment (E. coli TG1); printed HC runs into the start of CH1) VH: EVQLLESGGGLVQPGGSLRLSCAASGFTFSHYGMVWVRQAPGKGLEWVSYIVPSGGLTYYADSVKGRFTISRDNSKNTLYLQMNSLRAEDTAVYYCARVDYTGDGLGYWGQGTLVTVSS VL: DIQMTQSPSSLSASVGDRVTITCRASQSISIYVNWYQQKPGKAPNLLIFAASSLQRGVPSRFSGSGSGADFTLTISSLQPEDFATYYCQQSFSTPLTFGGGTKVEIK	–	10.9 T/B (target signal / background signal)
M9-C10 (Fab, V domains shown, Fab fragment (E. coli TG1); printed HC runs into the start of CH1) VH: EVQLLESGGGLVQPGGSLRLSCAASGFTFSLYPMQWVRQAPGKGLEWVSSIGSSGGMTFYADSVKGRFTISRDNSKNTLYLQMNSLRAEDTAVYYCTREVGAAGFAFDIWGQGTMVTVSS VL: DIQMTQSPSSLSASVGDRVTITCRASQGISSYLNWYQQKPGNAPNLLIYGASSLQSGVPSRFSGSGSGTDFTLTISSLQPEDFATYYCQESYSTLFTFGPGTTVEIK	–	7.8 T/B (target signal / background signal)
M9-D08 (Fab, V domains shown, Fab fragment (E. coli TG1); printed HC runs into the start of CH1) VH: EVQLLESGGGLVQPGGSLRLSCAASGFTFSWYKMMWVRQAPGKGLEWVSSIYPSGGWTNYADSVKGRFTISRDNSKNTLYLQMNSLRAEDTAVYYCTRGSPWGDDAFDIWGQGTMVTVSS VL: DIQMTQSPSSLSASVGDRVTLTCRASRTISFYLNWYQQKAGKAPELLIYGGSSLHSGVPSRFSGSGSGTDFSLTISNLQPEDIAVYYCQQSFSSPWTFGQGTKVEIK	–	35.9 T/B (target signal / background signal)
M9-E04 (Fab, V domains shown, Fab fragment (E. coli TG1); printed HC runs into the start of CH1) VH: EVQLLESGGGLVQPGGSLRLSCAASGFTFSEYDMMWVRQAPGKGLEWVSSIGSSGGMTYYADSVKGRFTISRDNSKNTLYLQMNSLRAEDTAVYYCARDQVAAAAIDYWGQGTLVTVSS VL: DIQMIQSPSSLSASVGDRVTITCRASQSISGYLNWYQQRSGKAPKLLIFAASNLQTGVPSRFSGSGSGTDFTLTINNLQPEDFATYYCQQSHTPPKTFGPGTKVDIK	–	18.8 T/B (target signal / background signal)
